Laboratory results as given in PMC5487319 (Scientific Reports, 2017).
Values belong to the molecule of their own block, whether it stands above or below them. Where a SMILES comes first, the peptide text is derived from it. The star is where a group is joined. HYNIC = NNc1ccc(C(=O)*)cn1

What was measured:
[1] = in vivo; conditions: male, BALB/c-nude, mouse, iv, 11.1 MBq, total radioactivity
Method: (§1) Five-week-old male BALB/c-nude mice were used for preparation of the xenograft tumor models. An A549 lung carcinoma-bearing model was established by subcutaneous injection of A549 cells at a concentration of 5 × 10^6 cells/mouse into the right front flank of the mice.
(§2) SPECT planar imaging was performed when the tumor volume was approximately 1 cm^3. The mice were anesthetized and placed in a supine position. Planar imaging was performed using a low-energy collimator at an energy peak of 140 keV at the indicated time after ^99mTc-labeled peptide (11.1 MBq, 150 μL) injection. The main imaging acquisition parameters were as follows: 128 × 128 matrix, window-width 20%, zoom 2.0, acquisition time 10 min. […] Then, 100,000 counts were acquired per image at each time indicated after the injection. For the blocking study, an excessive amount of HYNIC-peptide or EC-peptide (500 μg/mouse) was injected 30 min prior to radiolabeled peptide injection.

[2] = test system: A549 xenograft tumors; experiment: Therapeutic evaluation of ^188Re-peptides on A549 tumors; assay type: in vivo, mice; conditions: 18.5 MBq i.v. at the first and seventh day
Method: Sixty mice were randomly separated into 6 groups once the tumor volumes reached approximately 0.1 cm^3: saline group, ^188ReO4 ^− group (18.5 MBq), non-labeled peptide group (4 μg per mouse) and ^188Re-labeled peptide group (18.5 MBq, 4 μg peptide per mouse) (n = 10). All drugs were administered i.v at the first and seventh day. Tumor size was determined weekly by measuring the length, width, and depth of the tumor using a caliper. Tumor volume was calculated as follows: tumor volume = (length × width × depth) × π/6. The mice were abandoned once dead or body weight loss was more than 20%.
At the end of the therapeutic period, mice were sacrificed, and the tumors were collected and fixed in 4% paraformaldehyde (PFA). Routine hematoxylin and eosin (H&E) staining and TdT-mediated dUTP nick-end labeling (TUNEL) staining were performed for necrosis and apoptosis analysis according to the manufacturer’s instructions.

[3] = test system: A549 tumor-bearing nude mice; experiment: SPECT planar imaging; conditions: intravenous administration, 2 hour
Method: as §1, §2

[4] = target: VEGFR-1 (Homo sapiens, UniProt P17948); experiment: Co-immunoprecipitation of GST-peptide and VEGFR-1; assay type: binding; conditions: A549 cells, GST-peptide 80 or 185 nmol/L, 12 h, anti-GST or anti-VEGFR-1 antibody, Western blot
Sequence of VEGFR-1 (P17948 27-656 limits assumed): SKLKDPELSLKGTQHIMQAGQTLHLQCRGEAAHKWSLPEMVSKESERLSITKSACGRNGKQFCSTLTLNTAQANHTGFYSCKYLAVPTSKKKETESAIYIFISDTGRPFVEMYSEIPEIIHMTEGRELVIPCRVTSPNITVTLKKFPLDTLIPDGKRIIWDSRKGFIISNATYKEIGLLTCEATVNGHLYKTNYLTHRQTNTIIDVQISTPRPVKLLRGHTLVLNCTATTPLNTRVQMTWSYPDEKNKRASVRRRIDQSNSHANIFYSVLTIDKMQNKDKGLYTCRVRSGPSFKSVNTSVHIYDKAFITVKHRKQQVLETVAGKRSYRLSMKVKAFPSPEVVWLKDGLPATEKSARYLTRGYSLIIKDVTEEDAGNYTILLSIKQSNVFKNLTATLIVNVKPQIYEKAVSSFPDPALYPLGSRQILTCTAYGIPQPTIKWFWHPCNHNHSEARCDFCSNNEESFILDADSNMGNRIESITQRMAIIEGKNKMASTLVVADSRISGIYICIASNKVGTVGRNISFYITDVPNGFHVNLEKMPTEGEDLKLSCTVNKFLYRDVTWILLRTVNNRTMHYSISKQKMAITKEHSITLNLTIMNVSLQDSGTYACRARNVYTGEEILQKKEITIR
Method: GST-peptide was prepared and purified as previously described. Briefly, pGEX4T-1-peptide plasmid was obtained by peptide gene insertion into pGEX4T-1. Then, the plasmids were transfected into E. coli BL21 (DE3)-competent cells. Subsequently, GST-peptide fusion proteins were collected and purified by Glutathione Sepharose 4B. The obtained proteins were identified by protein electrophoresis.
A549 cells were seeded in 75 cm^2 bottles (1 × 10^4 counts/mL). After 24 h, GST-QKRKRKKSRKKH (80 nmol/L) or GST–RKRKRKKSRYIVLS (185 nmol/L) protein was added, respectively. After 12 h, the culture medium was removed and the cells were washed by PBS and then spalled with IP lysis buffer containing protease inhibitor (4 °C, 30 min). The protein concentration was determined with BCA methods. Protein (600 μg) from supernatant was used for immunoprecipitation (IP) assays with 1 μg anti-GST antibody or 1 μg anti-VEGFR-1 antibody in a reversed Co-IP experiment, while IgG served as the negative group. After washing 3× by TBST, IgG-HRP was added, shaking 2 h at RT, and last for enhanced chemiluminescence imaging.

[5] = target: VEGFR (UniProt P17948 27-1338); experiment: radioligand binding; receptor competition binding with 125I-VEGF165, peptide concentration varied; details in ref. 28
Sequence of VEGFR (P17948 27-1338): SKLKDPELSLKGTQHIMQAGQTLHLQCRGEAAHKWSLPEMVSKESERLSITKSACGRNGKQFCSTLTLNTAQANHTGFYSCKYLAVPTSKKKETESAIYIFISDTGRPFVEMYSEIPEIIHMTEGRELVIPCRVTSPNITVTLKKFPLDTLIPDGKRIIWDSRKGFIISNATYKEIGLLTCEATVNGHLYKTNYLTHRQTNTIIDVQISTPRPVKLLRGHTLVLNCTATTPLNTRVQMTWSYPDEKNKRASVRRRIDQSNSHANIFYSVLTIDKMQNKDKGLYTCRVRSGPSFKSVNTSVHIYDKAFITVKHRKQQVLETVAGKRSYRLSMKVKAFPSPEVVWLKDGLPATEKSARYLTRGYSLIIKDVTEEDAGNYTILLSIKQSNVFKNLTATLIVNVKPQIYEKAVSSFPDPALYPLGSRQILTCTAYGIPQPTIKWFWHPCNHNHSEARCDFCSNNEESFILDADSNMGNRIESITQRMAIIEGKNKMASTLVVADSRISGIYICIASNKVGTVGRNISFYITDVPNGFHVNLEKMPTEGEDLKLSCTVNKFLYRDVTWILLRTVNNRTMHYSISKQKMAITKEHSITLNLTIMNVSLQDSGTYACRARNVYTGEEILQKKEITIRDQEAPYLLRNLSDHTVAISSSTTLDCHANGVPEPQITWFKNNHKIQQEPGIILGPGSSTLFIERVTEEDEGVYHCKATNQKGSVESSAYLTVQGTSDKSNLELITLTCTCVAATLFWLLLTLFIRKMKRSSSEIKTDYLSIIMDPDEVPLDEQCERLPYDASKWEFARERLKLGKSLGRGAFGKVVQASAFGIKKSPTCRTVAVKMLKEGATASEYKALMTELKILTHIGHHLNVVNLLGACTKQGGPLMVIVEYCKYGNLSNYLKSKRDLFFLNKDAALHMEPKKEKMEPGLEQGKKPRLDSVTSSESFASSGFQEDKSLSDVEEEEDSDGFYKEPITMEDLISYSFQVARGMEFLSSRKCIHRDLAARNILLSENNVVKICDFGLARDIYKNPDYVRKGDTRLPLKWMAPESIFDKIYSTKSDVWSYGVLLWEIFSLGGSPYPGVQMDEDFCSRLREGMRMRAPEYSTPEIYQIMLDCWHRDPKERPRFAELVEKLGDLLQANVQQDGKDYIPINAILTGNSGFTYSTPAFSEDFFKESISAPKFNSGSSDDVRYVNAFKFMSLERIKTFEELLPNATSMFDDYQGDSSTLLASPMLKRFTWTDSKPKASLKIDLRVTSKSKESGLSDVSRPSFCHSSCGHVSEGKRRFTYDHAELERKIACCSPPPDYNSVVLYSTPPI

Molecule: N=C(N)NCCC[C@H](NC(=O)[C@H](CCCCN)NC(=O)[C@H](CCC(N)=O)NC(=O)c1ccc(NN)nc1)C(=O)N[C@@H](CCCCN)C(=O)N[C@@H](CCCNC(=N)N)C(=O)N[C@@H](CCCCN)C(=O)N[C@@H](CCCCN)C(=O)N[C@@H](CO)C(=O)N[C@@H](CCCNC(=N)N)C(=O)N[C@@H](CCCCN)C(=O)N[C@@H](CCCCN)C(=O)N[C@@H](Cc1c[nH]cn1)C(=O)O (99mTc complex, metal not drawn) [^99mTc-HYNIC-QKRKRKKSRKKH] ({HYNIC}-QKRKRKKSRKKH-OH)
tissue to tissue ratio at 0.5 h [1]: 1.53 | tissue to tissue ratio at 1 h [1]: 3.42 | tissue to tissue ratio at 2 h [1]: 4.31 | tissue to tissue ratio at 4 h [1]: 2.62

Molecule: CC[C@H](C)[C@H](NC(=O)[C@H](Cc1ccc(O)cc1)NC(=O)[C@H](CCCNC(=N)N)NC(=O)[C@H](CO)NC(=O)[C@H](CCCCN)NC(=O)[C@H](CCCCN)NC(=O)[C@H](CCCNC(=N)N)NC(=O)[C@H](CCCCN)NC(=O)[C@H](CCCNC(=N)N)NC(=O)[C@H](CCCCN)NC(=O)[C@H](CCCNC(=N)N)NC(=O)c1ccc(NN)nc1)C(=O)N[C@H](C(=O)N[C@@H](CC(C)C)C(=O)N[C@@H](CO)C(=O)O)C(C)C (99mTc complex, metal not drawn) [^99mTc-HYNIC-RKRKRKKSRYIVLS] ({HYNIC}-RKRKRKKSRYIVLS-OH)
tissue to tissue ratio at 0.5 h [1]: 4.05 | tissue to tissue ratio at 1 h [1]: 4.02 | tissue to tissue ratio at 2 h [1]: 3.76 | tissue to tissue ratio at 4 h [1]: 2.86

Molecule: [Na+].[O]=[188Re](=[O])(=[O])[O-] [Na^188ReO4]
A549 tumor volume growth ([2]; compared with the saline group, n = 10): inhibited the tumor volume growth | apoptosis in non-necrotic tumor areas (TUNEL staining) ([2]; end of the therapeutic period): no significant difference in necrosis or apoptosis | necrotic regions in tumor tissue (HE staining) ([2]; end of the therapeutic period): no significant difference in necrosis or apoptosis | survival of A549 tumor-bearing nude mice ([2]; n = 10): did not improve the survival duration | distribution of radioactivity on SPECT planar imaging [3]: Large amount of radioactivity was observed in thyroids and stomach

Molecule: GST-QKRKRKKSRKKH [GST-peptide fusion protein from E. coli BL21 (DE3)]
binding to VEGFR-1 by Co-IP and reversed Co-IP [4]: could bind to VEGFR-1

Second part, the molecule after the results:

binding to VEGFR-1 by Co-IP and reversed Co-IP [4]: could combined to VEGFR-1
Molecule: GST-RKRKRKKSRYIVLS [GST-peptide fusion protein from E. coli BL21 (DE3)]

IC50 [5]: 464 nM
B1: VEGF_(125-136) (peptide)
peptide: QKRKRKKSRYKS
notes: source: synthetic peptide (ChinaPeptides Co., Ltd., SPPS, HPLC purified)

IC50 [5]: 185 nM
B2: RKRKRKKSRYIVLS (peptide)
peptide: RKRKRKKSRYIVLS
notes: core motif RKRKKSR kept; also called non-labeled peptide; source: synthetic peptide (ChinaPeptides Co., Ltd., SPPS, HPLC purified)

IC50 [5]: 79.8 nM
B3: QKRKRKKSRKKH (peptide)
peptide: QKRKRKKSRKKH
notes: as for B2
